Reference: paper PMC2172828 (The Journal of Cell Biology, 2003)

Molecular target: T1, GST–Cdc15p(1–405) (S. pombe, UniProt Q09822 1-405)
T1 sequence (looked up): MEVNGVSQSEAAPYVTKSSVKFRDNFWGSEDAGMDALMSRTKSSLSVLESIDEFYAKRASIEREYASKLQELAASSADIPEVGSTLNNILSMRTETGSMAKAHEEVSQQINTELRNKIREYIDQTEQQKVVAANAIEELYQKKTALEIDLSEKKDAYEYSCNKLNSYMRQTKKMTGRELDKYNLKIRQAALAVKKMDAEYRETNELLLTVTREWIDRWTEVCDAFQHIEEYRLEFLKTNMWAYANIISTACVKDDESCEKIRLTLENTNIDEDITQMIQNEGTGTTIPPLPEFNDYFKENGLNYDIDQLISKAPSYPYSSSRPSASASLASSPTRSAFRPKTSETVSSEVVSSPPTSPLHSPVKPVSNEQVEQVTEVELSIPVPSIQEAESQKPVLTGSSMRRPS
Experiment: pull-down

B1: MBP–Myo1p(727–1041) (domain or fragment, S. pombe, UniProt Q9Y7Z8 727-1041, looked up)
chain: ATRIQRAWRSYVRRRSEAAACIQKLWNRNKVNMELERVRNEGTKLLQGKKQRRRYSILGSRKFYGDYLSASKPNGTLWNTCGLSQNDHVIFSMRCEVLVHKLGRTSKPSPRQLVLTKKNLYLVITKIVDQKLTQQVEKKFAVSSIDSVGLTNLQDDWVAIRNKSSQNGDMFLRCFFKTEFITTLKRINRNIQVIVGPTIQYCRKPGKVQTVKTAKDETTKDYDYYKSGTIHVGTGLPPTSKSKPFPRLATGGSTAAARGPRPVVQNKPAATKPVSMPAAKSKPAPMANPVSTAQQTQNRPPAPAMQARPNTTQAA
  binding result: binds
